Data on 2 substances can be found in patent publication US20230374502A1.

The assay deals with SpCas9 (Streptococcus pyogenes Cas9) (Streptococcus pyogenes) (UniProt Q99ZW2). Briefly: cell-based or functional assay.

The substance “Acx105 (AcrIIA4, wild type; AcrIIA4_lmo)” had an indel frequency (TIDE), OFF - R1, sample E2A-F2A - Acx-105 of 1%; an indel frequency (TIDE), OFF - R1, sample EMCV IRESV5 of 6.6%; an indel frequency (TIDE), OFF - R1, sample EMCV IRESV10 of 5%; an indel frequency (TIDE), OFF - R1, sample EMCV IRESV15 of 15.8%. This substance also had an indel frequency (TIDE), OFF - R1, sample EMCV IRESV21 of 12.2%; an indel frequency (TIDE), OFF - R1, sample EMCV WT IRES of 2.3%; an indel frequency (TIDE), OFF - R1, sample F2A - Acx-105 of 0.8%; an indel frequency (TIDE), OFF - R1, sample T2A - Acx-105 of 1.3%. Besides, the indel frequency (TIDE), OFF - R1, sample T2A-E2A-F2A - Acx-105 came out at 0.7%; the indel frequency (TIDE), ON - R1, sample E2A-F2A - Acx-105 came to 2.7%; the indel frequency (TIDE), ON - R1, sample EMCV IRESV5 turned out to be 12.5%; the indel frequency (TIDE), ON - R1, sample EMCV IRESV10 was determined as 26.5%. In addition, the indel frequency (TIDE), ON - R1, sample EMCV IRESV15 was found to be 54.3%; the indel frequency (TIDE), ON - R1, sample EMCV IRESV21 worked out at 50%; the indel frequency (TIDE), ON - R1, sample EMCV WT IRES was 1.2%; the indel frequency (TIDE), ON - R1, sample F2A - Acx-105 stood at 1.2%. Moreover, the indel frequency (TIDE), ON - R1, sample T2A - Acx-105 came out at 3.4%; the indel frequency (TIDE), ON - R1, sample T2A-E2A-F2A - Acx-105 amounted to 4.5%; the indel frequency, OFF - R1, Acr start codon ACG was determined as 13.5%; the indel frequency, OFF - R1, Acr start codon AUA was found to be 9.8%. Besides, the indel frequency, OFF - R1, Acr start codon AUG was found to be 1.4%; the indel frequency, OFF - R1, Acr start codon CUG turned out to be 7.8%; the indel frequency, OFF - R1, Acr start codon GUG worked out at 9.5%; the indel frequency, OFF - R1, Acr start codon UUG is 11.7%. The same substance showed an indel frequency, ON - R1, Acr start codon ACG of 32.5%; an indel frequency, ON - R1, Acr start codon AUA of 25.4%; an indel frequency, ON - R1, Acr start codon AUG of 5.6%; an indel frequency, ON - R1, Acr start codon CUG of 22.3%. The substance also returned an indel frequency, ON - R1, Acr start codon GUG of 26.3%; an indel frequency, ON - R1, Acr start codon UUG of 27%; an inhibition of OFF target editing, Acr start codon CUG of 50%; an inhibition of ON target editing, Acr start codon CUG of 36%. The reduction of SpCas9 editing, Acr start codon AUG is over 80%.

With Acx137 (AcrVA1, wild type; AcrVA1_mbo), the indel frequency (TIDE), OFF - R1, sample EMCV WT IRES - Acx137 is 7.9%; the indel frequency (TIDE), OFF - R1, sample T2A - Acx -137 is 11%; the indel frequency (TIDE), ON - R1, sample EMCV WT IRES - Acx137 worked out at 38.8%; the indel frequency (TIDE), ON - R1, sample T2A - Acx -137 was 40.3%.
